Source: publication PMC4490372, “Architecture of TFIIIC and its role in RNA polymerase III pre-initiation complex assembly” (Nature Communications, 2015)
Numbering of substitutions follows the chain as printed.

Key:
[1] = biological target: T1, τ131 (123–566) E498K (S. cerevisiae, UniProt P33339 123-566, E498K); experiment: ITC
T1 sequence: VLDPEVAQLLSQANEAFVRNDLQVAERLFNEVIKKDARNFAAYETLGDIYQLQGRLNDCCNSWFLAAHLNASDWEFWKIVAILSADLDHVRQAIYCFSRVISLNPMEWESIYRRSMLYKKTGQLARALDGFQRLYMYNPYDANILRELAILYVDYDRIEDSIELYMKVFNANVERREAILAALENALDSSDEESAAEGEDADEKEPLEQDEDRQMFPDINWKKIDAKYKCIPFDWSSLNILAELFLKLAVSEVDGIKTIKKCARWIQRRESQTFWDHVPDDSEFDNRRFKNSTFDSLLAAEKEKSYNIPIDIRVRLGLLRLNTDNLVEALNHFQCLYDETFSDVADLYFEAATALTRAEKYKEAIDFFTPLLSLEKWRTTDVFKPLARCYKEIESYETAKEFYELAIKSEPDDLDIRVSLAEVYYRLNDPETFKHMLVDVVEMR

[2] = biological target: T2, τ131 (123–566) E497K (S. cerevisiae, UniProt P33339 123-566, E497K); experiment: ITC
T2 sequence: T1 sequence with E375K, K376E

[3] = biological target: T3, τ131 (123–566) E472K (S. cerevisiae, UniProt P33339 123-566, E472K); experiment: ITC
T3 sequence: T1 sequence with E350K, K376E

[4] = biological target: T4, GST-tagged τ131 (123–566) E472K (S. cerevisiae, UniProt P33339 123-566, E472K); experiment: pull-down; 15 μg GST-tagged τ131 on Glutathione Sepharose 4B; 300 nM τ138 or Bdp1, or 1 μM Brf1–TBP; 50 mM Tris pH 7.5, 150 mM NaCl, 2 mM DTT, 0.1% Tween20; 4 °C, 4 h; settings: both partners purified
T4 construct: source: E. coli BL21 (DE3) Gold, purified (GST column, S200 SEC)
T4 sequence (looked up): T1 sequence with E350K, K376E

[5] = biological target: T5, GST-tagged τ131 (123–566) E498K (S. cerevisiae, UniProt P33339 123-566, E498K); experiment: as above; settings: both partners purified
T5 construct: source: E. coli BL21 (DE3) Gold, purified (GST column, S200 SEC)
T5 sequence (looked up): T1 sequence

[6] = biological target: T6, GST-tagged τ131 (123–566) E497K (S. cerevisiae, UniProt P33339 123-566, E497K); experiment: as above; settings: both partners purified
T6 construct: source: E. coli BL21 (DE3) Gold, purified (GST column, S200 SEC)
T6 sequence (looked up): T1 sequence with E375K, K376E

[7] = biological target: T7, τ131 (123–566) E497K (S. cerevisiae, UniProt P33339 123-566, E497K); experiment: ITC; MicroCal ITC200; 15 μM τ138 in the cell, 150 μM τ131 in the syringe; 20 mM Tris pH 7.5, 150 mM NaCl, 2 mM β-mercaptoethanol; 25 °C; settings: both partners purified
T7 construct: source: E. coli, purified by the same method as the wild type; not shown: His6, N-terminal, cleaved
T7 sequence (looked up): T1 sequence with E375K, K376E

[8] = biological target: T8, τ131 (123–566) E472K (S. cerevisiae, UniProt P33339 123-566, E472K); experiment: as above; settings: both partners purified
T8 construct: source: E. coli, purified by the same method as the wild type; not shown: His6, N-terminal, cleaved
T8 sequence (looked up): T1 sequence with E350K, K376E

[9] = biological target: T9, τ131 (123–566), TPR array, wild type (S. cerevisiae, UniProt P33339 123-566); experiment: as above; settings: both partners purified
T9 construct: also called τ131 TPR array; source: E. coli BL21 Star (DE3) pRARE, purified (Ni-NTA, TEV cleavage, S200 SEC); not shown: His6, N-terminal, cleaved
T9 sequence (looked up): T1 sequence with K376E

[10] = biological target: T10, τ131 (123–566) E498K (S. cerevisiae, UniProt P33339 123-566, E498K); experiment: as above; settings: both partners purified
T10 construct: source: E. coli, purified by the same method as the wild type; not shown: His6, N-terminal, cleaved
T10 sequence (looked up): T1 sequence

[11] = biological target: T11, τ91 (Tfc6), τB subunit of endogenous S. cerevisiae TFIIIC (S. cerevisiae, UniProt Q06339 1-672); experiment: SEC; endogenous TFIIIC purified from yeast by the TAP tag on τ60 (heparin, IgG Sepharose, TEV, MonoQ), then Superose 6 10/300 in 25 mM HEPES pH 7.5, 150 mM NaCl, 1 mM DTT; SDS-PAGE of an elution peak fraction; settings: partners not purified
T11 construct: τ91 (Tfc6), subunit of S. cerevisiae TFIIIC, endogenous subunit in the purified complex; source: endogenous, purified from S. cerevisiae strain SC2342 as part of TFIIIC (TAP tag on τ60)
T11 sequence (looked up): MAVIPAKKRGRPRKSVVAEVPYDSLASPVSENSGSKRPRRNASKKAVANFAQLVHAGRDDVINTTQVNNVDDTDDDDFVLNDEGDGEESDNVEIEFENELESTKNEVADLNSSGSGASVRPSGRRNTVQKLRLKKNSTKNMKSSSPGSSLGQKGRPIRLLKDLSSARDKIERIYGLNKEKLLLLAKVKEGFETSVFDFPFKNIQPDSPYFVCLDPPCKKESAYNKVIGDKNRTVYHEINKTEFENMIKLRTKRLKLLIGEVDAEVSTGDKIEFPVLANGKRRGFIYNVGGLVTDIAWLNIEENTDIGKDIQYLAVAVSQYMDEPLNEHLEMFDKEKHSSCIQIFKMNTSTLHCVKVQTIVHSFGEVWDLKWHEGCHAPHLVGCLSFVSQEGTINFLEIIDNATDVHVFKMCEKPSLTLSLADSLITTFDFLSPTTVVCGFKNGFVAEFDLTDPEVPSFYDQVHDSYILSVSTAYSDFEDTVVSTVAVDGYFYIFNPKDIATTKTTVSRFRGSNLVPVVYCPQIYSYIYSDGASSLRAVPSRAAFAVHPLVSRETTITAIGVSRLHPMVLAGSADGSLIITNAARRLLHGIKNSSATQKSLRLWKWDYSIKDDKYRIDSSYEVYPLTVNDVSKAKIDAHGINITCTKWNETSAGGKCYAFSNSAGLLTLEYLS

B1: τ138 (546–693), eWH-τIR (domain or fragment, S. cerevisiae, UniProt P34111 546-693, looked up)
chain: SARSLRSLQRQRAILKVMNTIGGVAYLREQFYESVSKYMGSTTTLDKKTVRGDVDLMVESEKLGARTEPVSGRKIIFLPTVGEDAIQRYILKEKDSKKATFTDVIHDTEIYFFDQTEKNRFHRGKKSVERIRKFQNRQKNAKIKASDD
notes: the cloning of this construct is not described; also called τ138 (eWH-τIR); central region of τ138; source: purified; expression of this construct not described
**Q.** Which results are given for B1?
**A.** Kd [1]: 971 nM; Kd [2]: 99 nM; Kd [3]: 415 nM; binding result [4]: binds; binding result [5]: binds; binding result [6]: binds; binding result [7]: binds; binding result [8]: binds; Kd [9]: ~100 nM; binding result [10]: binds

B2: τ60 (Tfc8), τB subunit of endogenous S. cerevisiae TFIIIC, fused with a C-terminal TAP-tag (natural protein, UniProt Q12308 1-588, looked up)
chain: MKLLKDLLVDRKEFEDWKNNLTWARDGTLYLTTFPDISIGQPKYAKDINCNSKNLFHVKEFPLEFENKLDFELAQQNGLLNSQPVCYPRVCKPSPIDDWMAVLSNNGNVSVFKDNKMLTNLDSKGNLSSRTYHCFEWNPIESSIVVGNEDGELQFFSIRKNSENTPEFYFESSIRLSDAGSKDWVTHIVWYEDVLVAALSNNSVFSMTVSASSHQPVSRMIQNASRRKITDLKIVDYKVVLTCPGYVHKIDLKNYSISSLKTGSLENFHIIPLNHEKESTILLMSNKTSYKVLLEDELHVTADNIIAPYLEKKFKKWSTIWNEFNNYETTLVIHGISLSPDGYSIAIVYDMERVAFKYKIASEQSFNIMFAPLYHTWTISERAVGLAWYQTYQIYNQSLPKLPENFSMNKKLLNGNYPISLDFQSYLNALMKSEEMRIIMFLNMTIDKPSILSFLEALYEYAINKKSELTNSFDLACVLSIAAILKREAPIYNGTLLMKNSFLEETFNLESFTADPETVTSTTNNTWKRCGVTLLPILTTHVKICPVSKQRVIDIKRDDLNDYGWFTRGLLERFNEISVYCGTTLEVM
notes: τ60 (Tfc8), subunit of S. cerevisiae TFIIIC, endogenous TFC8 fused with a C-terminal TAP-tag; The complex was captured on IgG Sepharose by the TAP tag and released by TEV protease before MonoQ, Superose 6 and cross-linking; not shown: TAP, C-terminal, kept
**Q.** Does B2 bind [11]?
**A.** binds
